This is an account of results in publication PMC9531428, “The diurnal emission of floral scent in Oncidium hybrid orchid is controlled by CIRCADIAN CLOCK ASSOCIATED 1 (CCA1) through the direct regulation on terpene synthase” (BMC Plant Biology, 2022).

Series [1] concerns the target T1, terpene synthase (TPS; OncSBTPS) (Oncidium hybrid cultivar, UniProt A0A3R5SMM9).
T1 construct: recombinant purified protein
T1 sequence (A0A3R5SMM9 1-551): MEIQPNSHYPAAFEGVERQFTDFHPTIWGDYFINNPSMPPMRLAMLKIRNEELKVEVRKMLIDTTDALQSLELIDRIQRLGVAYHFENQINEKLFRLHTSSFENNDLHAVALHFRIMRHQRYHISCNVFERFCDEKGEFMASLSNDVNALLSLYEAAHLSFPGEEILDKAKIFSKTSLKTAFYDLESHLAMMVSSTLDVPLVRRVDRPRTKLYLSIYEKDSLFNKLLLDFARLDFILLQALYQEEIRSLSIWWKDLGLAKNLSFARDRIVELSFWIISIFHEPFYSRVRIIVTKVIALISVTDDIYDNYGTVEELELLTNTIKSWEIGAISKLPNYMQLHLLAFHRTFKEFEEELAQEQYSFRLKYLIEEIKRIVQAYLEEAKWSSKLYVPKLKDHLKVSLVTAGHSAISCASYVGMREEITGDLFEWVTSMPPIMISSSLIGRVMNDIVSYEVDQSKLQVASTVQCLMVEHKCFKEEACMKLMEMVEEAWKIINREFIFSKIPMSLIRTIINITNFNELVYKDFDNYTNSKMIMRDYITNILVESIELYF
Briefly: GC-MS (SPME) of reaction products. Format: biochemical. To be noted: 37 °C, 4 h; products linalool and ocimene.

In series [2] the target is T2, OncSBCCA1 (Oncidium hybrid Sharry Baby, UniProt A0A7L5RYG3 1-622). Briefly: EMSA; 0-15 ug CCA1 in 10 uL; BSA; 10 uL with 2 uL 5X buffer (5X: 50 mM Tris-HCl, 750 mM KCl, 2.5 mM EDTA, 62.5% glycerol), i.e. 1X 10 mM Tris-HCl, 150 mM KCl, 0.5 mM EDTA, 12.5% glycerol; BSA; 30 min; pH and temperature not stated; native PAGE in 0.5X TAE, 150 V. To be noted: protein: recombinant; tags: His-tag (pET28a); label: 6-FAM (ligated with T4 ligase).
T2 sequence (A0A7L5RYG3 entry or part of it): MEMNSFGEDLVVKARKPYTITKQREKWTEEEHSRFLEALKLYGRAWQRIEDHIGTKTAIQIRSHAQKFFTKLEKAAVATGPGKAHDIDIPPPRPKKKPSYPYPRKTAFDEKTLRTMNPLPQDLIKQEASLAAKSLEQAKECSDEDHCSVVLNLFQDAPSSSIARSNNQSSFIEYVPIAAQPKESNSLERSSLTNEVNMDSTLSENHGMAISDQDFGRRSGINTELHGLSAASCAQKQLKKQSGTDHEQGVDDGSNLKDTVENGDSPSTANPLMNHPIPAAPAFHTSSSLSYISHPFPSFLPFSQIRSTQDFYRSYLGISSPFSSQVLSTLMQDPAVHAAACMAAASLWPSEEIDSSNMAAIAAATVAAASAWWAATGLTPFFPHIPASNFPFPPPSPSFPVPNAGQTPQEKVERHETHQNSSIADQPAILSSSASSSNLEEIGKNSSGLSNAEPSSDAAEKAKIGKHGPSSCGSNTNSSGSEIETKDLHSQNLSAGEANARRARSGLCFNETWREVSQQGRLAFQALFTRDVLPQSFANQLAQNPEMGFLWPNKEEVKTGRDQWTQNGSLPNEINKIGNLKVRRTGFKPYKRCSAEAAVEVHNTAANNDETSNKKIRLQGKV

Series [3] addresses T2, OncSBCCA1. Description: competition; 50x unlabeled competitor abolished the CCA1-probe signal; 10 uL with 2 uL 5X buffer (5X: 50 mM Tris-HCl, 750 mM KCl, 2.5 mM EDTA, 62.5% glycerol), i.e. 1X 10 mM Tris-HCl, 150 mM KCl, 0.5 mM EDTA, 12.5% glycerol; BSA; 30 min; pH and temperature not stated; native PAGE in 0.5X TAE, 150 V. The following applies: protein: recombinant; tags: His-tag (pET28a).

Take `CC(C)=CCC/C(C)=C/COP(=O)(O)OP(=O)(O)O` [GDP, geranyl diphosphate]: the “GC-MS (SPME) of reaction products” value in series [1] is recorded as “TPS recombinant protein was purified, then fed with the precursor GDP”.

B1: CBS probe (TPS promoter, 24-mer) (dsDNA)
DNA 1: TATTTTAGAGATTTTTACATACAT
DNA 2: ATGTATGTAAAAATCTCTAAAATA
For the molecule B1, the binding result in series [2] is recorded as “binds”.

B2: unlabeled CBS competitor (24-mer) (dsDNA)
DNA 1: TATTTTAGAGATTTTTACATACAT
DNA 2: ATGTATGTAAAAATCTCTAAAATA
In the case of B2, the binding result in series [3] was “binds”.
